From US7981602B2, “Photoproteins with enhanced bioluminescence and assays using the same” (AXXAM S.R.L., priority 2005, dated 2011) come the findings set out here.

For assay [1], the system named is CHOK1/mito12mutCly cell line. The experiment in a line: ATP-stimulated luminescence in CHOK1/mito12mutCly cell line (CCD camera). The format is cell-based. As to conditions: ATP stimulation, 2.5 or 5 μM coelenterazine. As for the experimental part: Clone Selection Process: • CHO-K1 were transfected with pcDNA3Neo^−/MITO-hMutated-clytin or pcDNA3Neo^−/CYTO-hMutated-clytin. • 48 h after transfection, the transfected cells were plated in 10×96 w/p in complete DMEM. • At confluence the 10×96 w/p were duplicated in 10 white plates. 3 1/2 hours before measurements, medium was replaced with 50 μl/well of tyrode (2 mM Ca^2+ and coelenterazine 10 μM). • Positive clones were selected evaluating: • First selection was done lysing cells with TRITON X-100. CCD camera conditions: low sensitivity, integration time 1 second reading for 5 seconds. • Five clones were chosen each diluted in 3×96 w/p. • At confluence the 15×96 w/p were duplicated in 15 white plates. […] CCD camera conditions: low sensitivity, integration time 1 second reading for 30 seconds for the ATP measurement followed by 30 seconds for TRITON X-100. • Four limiting dilutions of the best clone selected were performed, 0.3 cells per well in 10×96 w/p. • The final clone was chosen after the 4th LD selected with ATP 0.25 μM, coelenterazine 5 μM. • Complete optimization of the assay was performed on the best responding clone.
CHO cells are seeded at different cell densities in 384MTP (500, 750, 1,000, 1,500 cells/well) in growth media supplemented as above and measured with a CCD camera 24 hours and 48 hours after plating. […]

Assay [2] in a line: In vitro transcription and translation, light emission upon calcium injection. The format is biochemical. As to conditions: translation mixture, 5 μM CaCl2 injected, luminescence recorded 10 seconds; comparison among the 8 mutants (FIG. 2). As for the experimental part: Translation of the photoproteins was carried out in the rabbit reticulocyte cell-free system (TNT Quick coupled kit, Promega), following the general instructions of the supplier. 500 ng of DNA was used for each in vitro transcription/translation reaction mix. The reaction volume (10 μl) included 8 μl of TNT T7 Quick Master Mix, 1.6 μl of DNA, 0.2 μl of the Methionine buffer and 0.2 μl of Coelenterazine (0.5 mM). To this end, 5 μl from each sample of the translation mixture were tested for light emission by the injection of calcium solution and by measuring at the Ascent Luminoskan (Labsystems).
5 μl of the translation mixture were directly mixed with 95 μl of PBS solution in a 96 well plate which was mounted into the Luminometer (Berthold). To trigger photoprotein light emission, a 5 μM CaCl2 solution was injected into the well and luminescence recorded for 10 seconds.

Assay [3] is described as follows: Recombinant photoprotein light emission upon 1 mM calcium injection. The format is biochemical. The settings on record: 1 mM CaCl2 (FIG. 6). On the procedure:
For the production of the recombinant protein we followed a small scale protein purification protocol under native conditions. Due to the presence of an N-terminal His tag in our constructs, we decided to purify the expressed proteins on Ni-NTA Spin Columns (Qiagen) following the suppliers' protocol.
In order to evaluate the response of the photoprotein to different calcium concentrations, 0.05 ng/well (96 MTP) of the recombinant protein were charged with Coelenterazine 10 μM overnight at 4° C.
After incubation, different concentrations of CaCl2 were injected and the light released was measured at the Ascent Luminoskan with an integration time of 20 ms for a total time of 10 seconds.
Recombinant photoproteins corresponding to some mutants were produced under native conditions following a small scale purification protocol.
In another experiment, the recombinant photoprotein 25N03b was compared to recombinant Aequorin.

B1: 12mutCly: mutant Clytin photoprotein 12mutCly (SEQ ID NO: 19), expressed in CHOK1 cells (protein)
chain: MADTASKYAVKLRPNFDNPKWVNRHKFMFNFLDINGDGKITLDEIVSKASDDICAKLEATPEQTKRHQVCVEAFFRGCGMEYGKEIAFPQFLDGWKQLATSELKKWARNEPTLIREWGDAVFDIFDKDGSGSISLDEWKAYGRISGICSSDEDAEKTFKHCDLDNSGKLDVDEMTRQHLGFWYTLDPNADGLYGNFVP
Take B1: the “light emission and sensitivity to Ca2+ in cells” value in assay [1] is “high light emission and sensitivity to Ca^2+”.

B2: 25N03b: mutant Clytin photoprotein from random mutagenesis, clone 25N03b (sequence ID no 16) (protein)
chain: MADTASKYAVKLRPNFDNPKWVNRHKFMFNFLDINGDGKITLDEIVSKASDDICAKLGATPEQTKRHQDAVEAFFKKIGMDYGKEVEFPAFVDGWKELANYDLKLWSQNKKSLIRDWGEAVFDIFDKDGSGSISLDEWKAYCRISGICSSDEDAEKTFKHCDLDNSGKLDVDEMTRQHLGFWYTLDPNADGLYGNFVP
For B2, the “light emission of in vitro translated mutants upon calcium injection” value in assay [2] is “best responding mutant”. Moreover, the “light emission recorded upon 1 mM CaCl2 injection, compared to recombinant Aequorin” value in assay [3] was “surprisingly higher”.
